Assay results published in paper PMC6582153.

How the values were obtained:
Assay in all cases: MST; 2-hep HMM with C-terminal eGFP (fluorescence followed) titrated with increasing concentrations of unlabeled proximal S2; 23 °C; 10 mM imidazole pH 7.5, 100 mM KCl, 1 mM EDTA, 2 mM MgCl2, 1 mM DTT, 500 mM ADP, 0.05% Tween; MST power 60; isotherms fitted with the Hill equation
[1] = target: D382Y recombinant human β-cardiac myosin 2-hep HMM (UniProt P08590)
[2] = target: R719W recombinant human β-cardiac myosin 2-hep HMM (UniProt P08590)
[3] = target: WT recombinant human β-cardiac myosin 2-hep HMM (UniProt P08590)

Kd [1]: 45 µM
Kd [2]: 58 µM
Kd [3]: 37 µM
Substance: proximal S2 (amino acids 839–968) of human β-cardiac myosin (from UniProt P12883 839-968) (domain or fragment)
